{
  "source": "patent US20230346919A1",
  "target": "SARS-CoV-2 spike SΔ21 displayed on VSV-eGFP-SARS-CoV-2-SΔ21 particles (SARS-CoV-2 isolate Wuhan-Hu-1) (UniProt P0DTC2)",
  "test": "cell-based or functional assay",
  "data": [
    {"substance": "human ACE2-Fc (hACE2 residues 1-615, HRV-3C site, human IgG1 Fc) (from UniProt Q9BYF1 18-615) (Fc fusion)", "values": [
      {"measurement": "EC50, inhibition of VSV-SARS-CoV-2-SΔ21 infection (GRNT, Vero E6 cells)", "result": 29, "unit": "µg/mL"}
    ]}
  ]
}
